From IntAct's records for PubMed 35512704

B1: Speckle-type POZ protein (Homo sapiens), O43791 (parent)
chain: MSRVPSPPPPAEMSSGPVAESWCYTQIKVVKFSYMWTINNFSFCREEMGEVIKSSTFSSGANDKLKWCLRVNPKGLDEESKDYLSLYLLLVSCPKSEVRAKFKFSILNAKGEETKAMESQRAYRFVQGKDWGFKKFIRRDFLLDEANGLLPDDKLTLFCEVSVVQDSVNISGQNTMNMVKVPECRLADELGGLWENSRFTDCCLCVAGQEFQAHKAILAARSPVFSAMFEHEMEESKKNRVEINDVEPEVFKEMMCFIYTGKAPNLDKMADDLLAAADKYALERLKVMCEDALCSNLSVENAAEILILADLHSADQLKTQAVDFINYHASDVLETSGWKSMVVSHPHLVAEAYRSLASAQCPFLGPPRKRLKQS

Variants of: B1
Details: with fgfr4_human FGFR4, P22455

Row | Variant | effect of a mutation on the interaction
1 | F133L | with no effect

Variants of: B1
Details: with fumh_human FH

Row | Variant | effect of a mutation on the interaction
2 | F133L | with no effect

Variants of: B1
Details: with fzr1_human FZR1, Q9UM11
Sequence of fzr1_human FZR1, Q9UM11 (Q9UM11 whole entry): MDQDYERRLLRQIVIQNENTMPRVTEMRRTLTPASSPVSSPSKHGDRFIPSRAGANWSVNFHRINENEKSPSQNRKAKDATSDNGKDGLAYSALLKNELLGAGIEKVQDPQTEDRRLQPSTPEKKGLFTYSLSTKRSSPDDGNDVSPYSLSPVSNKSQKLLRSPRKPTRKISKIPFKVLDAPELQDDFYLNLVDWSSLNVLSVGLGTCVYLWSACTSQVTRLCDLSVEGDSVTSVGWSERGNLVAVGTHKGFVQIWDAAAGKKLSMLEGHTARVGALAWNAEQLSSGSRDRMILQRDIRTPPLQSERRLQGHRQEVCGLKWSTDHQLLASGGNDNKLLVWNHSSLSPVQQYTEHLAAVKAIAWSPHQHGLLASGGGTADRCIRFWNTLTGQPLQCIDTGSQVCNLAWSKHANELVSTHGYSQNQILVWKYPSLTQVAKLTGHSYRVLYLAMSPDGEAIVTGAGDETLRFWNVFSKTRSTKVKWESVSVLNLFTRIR

Row | Variant | effect of a mutation on the interaction
3 | F133L | with no effect

Variants of: B1
Details: with gbra6_human GABRA6, Q16445

Row | Variant | effect of a mutation on the interaction
4 | F133L | with no effect

Variants of: B1
Details: with gata1_human GATA1, P15976

Row | Variant | effect of a mutation on the interaction
5 | F133L | with no effect

Variants of: B1
Details: with p66b_human GATAD2B

Row | Variant | effect of a mutation on the interaction
6 | F133L | with no effect

Variants of: B1
Details: with gna11_human GNA11, P29992

Row | Variant | effect of a mutation on the interaction
7 | F133L | with no effect

Variants of: B1
Details: with gna13_human GNA13, Q14344
Sequence of gna13_human GNA13, Q14344 (Q14344 whole entry): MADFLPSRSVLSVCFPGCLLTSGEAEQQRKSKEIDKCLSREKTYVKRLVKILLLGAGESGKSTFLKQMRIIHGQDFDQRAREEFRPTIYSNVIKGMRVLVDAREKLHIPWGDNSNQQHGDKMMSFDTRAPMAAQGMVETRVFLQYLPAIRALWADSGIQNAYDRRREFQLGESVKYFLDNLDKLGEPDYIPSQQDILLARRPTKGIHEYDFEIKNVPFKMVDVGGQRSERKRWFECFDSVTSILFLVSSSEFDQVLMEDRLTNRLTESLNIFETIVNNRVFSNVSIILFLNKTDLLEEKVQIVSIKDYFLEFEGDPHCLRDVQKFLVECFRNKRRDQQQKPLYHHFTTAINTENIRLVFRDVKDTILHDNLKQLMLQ

Row | Variant | effect of a mutation on the interaction
8 | F133L | with no effect

Variants of: B1
Details: with gnaq_human GNAQ

Row | Variant | effect of a mutation on the interaction
9 | F133L | with no effect

Variants of: B1
Details: with grm1_human GRM1, Q13255
Sequence of grm1_human GRM1, Q13255 (Q13255 whole entry, looked up): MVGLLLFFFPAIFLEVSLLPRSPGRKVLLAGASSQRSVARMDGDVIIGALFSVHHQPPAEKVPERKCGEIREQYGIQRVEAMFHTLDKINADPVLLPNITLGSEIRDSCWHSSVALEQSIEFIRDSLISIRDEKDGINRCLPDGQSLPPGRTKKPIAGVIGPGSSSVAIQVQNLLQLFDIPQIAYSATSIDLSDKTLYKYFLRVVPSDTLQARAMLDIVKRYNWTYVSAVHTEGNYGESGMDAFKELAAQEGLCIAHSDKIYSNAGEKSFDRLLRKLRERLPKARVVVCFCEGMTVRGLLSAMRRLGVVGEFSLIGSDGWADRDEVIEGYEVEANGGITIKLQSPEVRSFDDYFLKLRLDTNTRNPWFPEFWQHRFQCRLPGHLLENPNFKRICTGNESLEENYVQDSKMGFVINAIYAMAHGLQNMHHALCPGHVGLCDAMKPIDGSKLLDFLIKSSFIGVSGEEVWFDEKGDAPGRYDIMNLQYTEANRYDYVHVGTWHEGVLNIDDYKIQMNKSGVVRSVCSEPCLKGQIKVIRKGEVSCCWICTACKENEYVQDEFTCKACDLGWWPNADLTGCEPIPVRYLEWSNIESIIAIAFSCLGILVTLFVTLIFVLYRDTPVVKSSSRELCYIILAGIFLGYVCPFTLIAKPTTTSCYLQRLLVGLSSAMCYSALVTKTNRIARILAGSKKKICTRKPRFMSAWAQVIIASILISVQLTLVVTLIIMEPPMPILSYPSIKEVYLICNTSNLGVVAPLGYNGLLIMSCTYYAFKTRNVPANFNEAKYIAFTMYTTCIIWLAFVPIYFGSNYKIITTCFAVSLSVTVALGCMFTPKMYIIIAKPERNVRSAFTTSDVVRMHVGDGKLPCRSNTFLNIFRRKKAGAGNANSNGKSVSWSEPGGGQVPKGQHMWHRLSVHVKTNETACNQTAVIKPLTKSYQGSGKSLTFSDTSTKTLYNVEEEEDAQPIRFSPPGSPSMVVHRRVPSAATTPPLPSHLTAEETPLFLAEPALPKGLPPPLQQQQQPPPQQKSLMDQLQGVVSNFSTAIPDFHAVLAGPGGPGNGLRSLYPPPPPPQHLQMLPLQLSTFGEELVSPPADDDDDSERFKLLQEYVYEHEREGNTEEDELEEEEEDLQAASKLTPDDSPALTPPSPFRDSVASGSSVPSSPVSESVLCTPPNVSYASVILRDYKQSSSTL

Row | Variant | effect of a mutation on the interaction
10 | F133L | with no effect

Variants of: B1
Details: with grm3_human GRM3, Q14832

Row | Variant | effect of a mutation on the interaction
11 | F133L | with no effect

Variants of: B1
Details: with gsk3b_human GSK3B

Row | Variant | effect of a mutation on the interaction
12 | F133L | with no effect

Variants of: B1
Details: with gtpb4_human GTPBP4, Q9BZE4

Row | Variant | effect of a mutation on the interaction
13 | F133L | with no effect

Variants of: B1
Details: with h33_human H3-3A

Row | Variant | effect of a mutation on the interaction
14 | F133L | with no effect

Variants of: B1
Details: with hdac1_human HDAC1, Q13547

Row | Variant | effect of a mutation on the interaction
15 | F133L | with no effect

Variants of: B1
Details: with hdac3_human HDAC3, O15379

Row | Variant | effect of a mutation on the interaction
16 | F133L | with no effect

Variants of: B1
Details: with hgf_human HGF

Row | Variant | effect of a mutation on the interaction
17 | F133L | with no effect

Variants of: B1
Details: with h31_human H3C1, P68431

Row | Variant | effect of a mutation on the interaction
18 | F133L | with no effect

Variants of: B1
Details: with hlab_human HLA-B

Row | Variant | effect of a mutation on the interaction
19 | F133L | with no effect

Variants of: B1
Details: with hnf1a_human HNF1A

Row | Variant | effect of a mutation on the interaction
20 | F133L | with no effect

Variants of: B1
Details: with igf1r_human IGF1R

Row | Variant | effect of a mutation on the interaction
21 | F133L | with no effect

Variants of: B1
Details: with il7ra_human IL7R

Row | Variant | effect of a mutation on the interaction
22 | F133L | with no effect

Variants of: B1
Details: with int12_human INTS12, Q96CB8
Sequence of int12_human INTS12, Q96CB8 (Q96CB8 whole entry): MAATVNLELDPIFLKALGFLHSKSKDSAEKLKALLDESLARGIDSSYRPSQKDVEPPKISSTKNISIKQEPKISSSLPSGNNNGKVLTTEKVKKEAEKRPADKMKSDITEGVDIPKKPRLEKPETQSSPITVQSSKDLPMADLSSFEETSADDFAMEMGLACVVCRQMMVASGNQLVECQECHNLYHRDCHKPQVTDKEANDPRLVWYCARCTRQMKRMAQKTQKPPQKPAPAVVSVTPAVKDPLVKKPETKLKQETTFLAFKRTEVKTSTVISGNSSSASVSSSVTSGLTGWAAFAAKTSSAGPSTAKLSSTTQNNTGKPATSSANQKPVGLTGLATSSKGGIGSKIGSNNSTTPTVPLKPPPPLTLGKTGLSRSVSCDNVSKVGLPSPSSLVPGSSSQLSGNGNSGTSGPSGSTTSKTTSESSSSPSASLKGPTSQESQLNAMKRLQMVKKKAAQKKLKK

Row | Variant | effect of a mutation on the interaction
23 | F133L | with no effect

Variants of: B1
Details: with ist1_human IST1, P53990

Row | Variant | effect of a mutation on the interaction
24 | F133L | with no effect

Variants of: B1
Details: with jak3_human JAK3, P52333
Sequence of jak3_human JAK3, P52333 (P52333 whole entry): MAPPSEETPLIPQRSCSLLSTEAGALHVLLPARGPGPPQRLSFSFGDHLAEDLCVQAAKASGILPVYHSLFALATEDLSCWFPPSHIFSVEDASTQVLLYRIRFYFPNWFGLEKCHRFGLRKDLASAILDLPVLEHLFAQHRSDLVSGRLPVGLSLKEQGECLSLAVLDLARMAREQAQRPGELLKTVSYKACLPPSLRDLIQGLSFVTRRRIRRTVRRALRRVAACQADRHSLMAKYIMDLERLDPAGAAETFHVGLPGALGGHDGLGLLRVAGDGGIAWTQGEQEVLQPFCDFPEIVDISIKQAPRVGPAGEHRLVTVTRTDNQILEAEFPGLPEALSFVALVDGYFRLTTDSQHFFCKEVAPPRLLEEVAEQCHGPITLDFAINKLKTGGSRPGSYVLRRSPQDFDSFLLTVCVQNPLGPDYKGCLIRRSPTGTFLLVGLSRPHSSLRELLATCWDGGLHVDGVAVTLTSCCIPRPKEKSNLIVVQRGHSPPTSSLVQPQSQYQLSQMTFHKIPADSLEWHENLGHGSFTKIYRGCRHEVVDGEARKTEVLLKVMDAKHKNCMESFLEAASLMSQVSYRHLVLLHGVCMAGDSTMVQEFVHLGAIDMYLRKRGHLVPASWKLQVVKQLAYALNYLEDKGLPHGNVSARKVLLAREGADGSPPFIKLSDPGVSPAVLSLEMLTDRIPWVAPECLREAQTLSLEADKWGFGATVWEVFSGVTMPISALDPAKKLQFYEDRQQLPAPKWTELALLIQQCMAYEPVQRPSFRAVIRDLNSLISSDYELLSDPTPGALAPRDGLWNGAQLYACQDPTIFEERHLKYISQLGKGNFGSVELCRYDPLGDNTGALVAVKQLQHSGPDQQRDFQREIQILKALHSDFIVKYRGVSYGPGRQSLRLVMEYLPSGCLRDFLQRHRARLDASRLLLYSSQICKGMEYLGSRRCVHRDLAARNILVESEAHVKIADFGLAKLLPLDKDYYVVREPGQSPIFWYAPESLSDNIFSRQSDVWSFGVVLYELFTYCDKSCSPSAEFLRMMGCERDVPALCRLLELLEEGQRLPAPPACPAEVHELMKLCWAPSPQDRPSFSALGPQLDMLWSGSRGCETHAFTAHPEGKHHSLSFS

Row | Variant | effect of a mutation on the interaction
25 | F133L | with no effect

Variants of: B1
Details: with kat2a_human KAT2A

Row | Variant | effect of a mutation on the interaction
26 | F133L | with no effect

Variants of: B1
Details: with kdm5a_human KDM5A

Row | Variant | effect of a mutation on the interaction
27 | F133L | with no effect

Variants of: B1
Details: with kdm5c_human KDM5C

Row | Variant | effect of a mutation on the interaction
28 | F133L | with no effect

Variants of: B1
Details: with kdm6a_human KDM6A

Row | Variant | effect of a mutation on the interaction
29 | F133L | with no effect

Variants of: B1
Details: with vgfr2_human KDR

Row | Variant | effect of a mutation on the interaction
30 | F133L | with no effect

Variants of: B1
Details: with lims1_human LIMS1, P48059
Sequence of lims1_human LIMS1, P48059 (P48059 whole entry): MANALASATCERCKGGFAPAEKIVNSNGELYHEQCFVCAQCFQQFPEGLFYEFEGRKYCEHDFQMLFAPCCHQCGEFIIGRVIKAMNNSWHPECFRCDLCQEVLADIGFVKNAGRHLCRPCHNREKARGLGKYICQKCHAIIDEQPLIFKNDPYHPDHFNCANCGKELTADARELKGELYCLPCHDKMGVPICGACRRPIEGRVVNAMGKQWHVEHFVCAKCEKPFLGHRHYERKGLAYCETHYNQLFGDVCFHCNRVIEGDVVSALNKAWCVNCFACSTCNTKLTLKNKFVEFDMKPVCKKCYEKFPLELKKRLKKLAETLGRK

Row | Variant | effect of a mutation on the interaction
31 | F133L | with no effect

Variants of: B1
Details: with maga6_human MAGEA6, P43360

Row | Variant | effect of a mutation on the interaction
32 | F133L | with no effect

Variants of: B1
Details: with m3k1_human MAP3K1, Q13233

Row | Variant | effect of a mutation on the interaction
33 | F133L | with no effect

Variants of: B1
Details: with mk10_human MAPK10, P53779

Row | Variant | effect of a mutation on the interaction
34 | F133L | with no effect

Variants of: B1
Details: with mk14_human MAPK14, Q16539

Row | Variant | effect of a mutation on the interaction
35 | F133L | with no effect

Variants of: B1
Details: with mk03_human MAPK3, P27361

Row | Variant | effect of a mutation on the interaction
36 | F133L | with no effect

Variants of: B1
Details: with mk04_human MAPK4, P31152

Row | Variant | effect of a mutation on the interaction
37 | F133L | with no effect

Variants of: B1
Details: with mk06_human MAPK6, Q16659

Row | Variant | effect of a mutation on the interaction
38 | F133L | with no effect

Variants of: B1
Details: with mk07_human MAPK7, Q13164

Row | Variant | effect of a mutation on the interaction
39 | F133L | with no effect

Variants of: B1
Details: with sin1_human MAPKAP1, Q9BPZ7

Row | Variant | effect of a mutation on the interaction
40 | F133L | with no effect

Variants of: B1
Details: with mcl1_human MCL1, Q07820
Sequence of mcl1_human MCL1, Q07820 (Q07820 whole entry): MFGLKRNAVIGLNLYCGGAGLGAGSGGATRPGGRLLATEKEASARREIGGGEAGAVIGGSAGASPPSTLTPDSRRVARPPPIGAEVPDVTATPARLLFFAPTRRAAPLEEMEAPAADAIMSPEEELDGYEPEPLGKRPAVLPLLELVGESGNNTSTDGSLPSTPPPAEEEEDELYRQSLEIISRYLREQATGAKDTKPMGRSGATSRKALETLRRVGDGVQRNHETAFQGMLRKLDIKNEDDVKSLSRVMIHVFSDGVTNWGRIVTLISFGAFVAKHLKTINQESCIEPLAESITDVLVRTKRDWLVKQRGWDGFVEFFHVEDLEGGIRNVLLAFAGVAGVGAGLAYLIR

Row | Variant | effect of a mutation on the interaction
41 | F133L | with no effect

Variants of: B1
Details: with mdm2_human MDM2, Q00987

Row | Variant | effect of a mutation on the interaction
42 | F133L | with no effect

Variants of: B1
Details: with mef2a_human MEF2A

Row | Variant | effect of a mutation on the interaction
43 | F133L | with no effect

Variants of: B1
Details: with mlh1_human MLH1, P40692

Row | Variant | effect of a mutation on the interaction
44 | F133L | with no effect

Variants of: B1
Details: with mtor_human MTOR

Row | Variant | effect of a mutation on the interaction
45 | F133L | with no effect

Variants of: B1
Details: with mybb_human MYBL2, P10244

Row | Variant | effect of a mutation on the interaction
46 | F133L | with no effect

Variants of: B1
Details: with myc_human MYC

Row | Variant | effect of a mutation on the interaction
47 | F133L | with no effect

Variants of: B1
Details: with mycn_human MYCN

Row | Variant | effect of a mutation on the interaction
48 | F133L | with no effect

Variants of: B1
Details: with ncoa3_human NCOA3, Q9Y6Q9

Row | Variant | effect of a mutation on the interaction
49 | F133L | with no effect

Variants of: B1
Details: with ikba_human NFKBIA

Row | Variant | effect of a mutation on the interaction
50 | F133L | with no effect

Variants of: B1
Details: with notc2_human NOTCH2, Q04721

Row | Variant | effect of a mutation on the interaction
51 | F133L | with no effect

Variants of: B1
Details: with nox1_human NOX1, Q9Y5S8

Row | Variant | effect of a mutation on the interaction
52 | F133L | with no effect

Variants of: B1
Details: with ntrk2_human NTRK2, Q16620

Row | Variant | effect of a mutation on the interaction
53 | F133L | with no effect

Variants of: B1
Details: with ntrk3_human NTRK3, Q16288

Row | Variant | effect of a mutation on the interaction
54 | F133L | with no effect

Variants of: B1
Details: with pak3_human PAK3, O75914

Row | Variant | effect of a mutation on the interaction
55 | F133L | with no effect

Variants of: B1
Details: with prkn_human PRKN

Row | Variant | effect of a mutation on the interaction
56 | F133L | with no effect

Variants of: B1
Details: with pax5_human PAX5, Q02548
Sequence of pax5_human PAX5, Q02548 (Q02548 whole entry): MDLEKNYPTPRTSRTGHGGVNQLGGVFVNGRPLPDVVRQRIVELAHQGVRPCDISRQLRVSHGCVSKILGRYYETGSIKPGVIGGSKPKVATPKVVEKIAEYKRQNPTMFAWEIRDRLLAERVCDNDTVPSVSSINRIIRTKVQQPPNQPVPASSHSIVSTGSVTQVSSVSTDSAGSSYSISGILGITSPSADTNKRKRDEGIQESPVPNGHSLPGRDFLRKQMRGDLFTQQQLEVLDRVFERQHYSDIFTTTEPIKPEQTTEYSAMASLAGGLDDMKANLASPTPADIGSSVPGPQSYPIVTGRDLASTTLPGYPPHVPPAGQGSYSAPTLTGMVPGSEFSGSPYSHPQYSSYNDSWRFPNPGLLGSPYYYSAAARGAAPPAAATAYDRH

Row | Variant | effect of a mutation on the interaction
57 | F133L | with no effect

Variants of: B1
Details: with pcbp1_human PCBP1, Q15365

Row | Variant | effect of a mutation on the interaction
58 | F133L | with no effect

Variants of: B1
Details: with pdcd1_human PDCD1, Q15116
Sequence of pdcd1_human PDCD1, Q15116 (Q15116 whole entry): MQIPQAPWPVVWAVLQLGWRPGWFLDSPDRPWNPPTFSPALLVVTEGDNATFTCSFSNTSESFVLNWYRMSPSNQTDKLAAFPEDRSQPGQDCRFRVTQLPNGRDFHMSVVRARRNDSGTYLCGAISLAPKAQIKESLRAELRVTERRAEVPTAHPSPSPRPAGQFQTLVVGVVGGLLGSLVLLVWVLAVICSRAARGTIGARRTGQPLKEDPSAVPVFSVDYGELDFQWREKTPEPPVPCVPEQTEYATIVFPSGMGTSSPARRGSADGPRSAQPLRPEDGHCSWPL

Row | Variant | effect of a mutation on the interaction
59 | F133L | with no effect

Variants of: B1
Details: with pgfrb_human PDGFRB

Row | Variant | effect of a mutation on the interaction
60 | F133L | with no effect
